2 molecules from PMC8231982 (Molecules, 2021) can be followed below.

Holding throughout (settings): both partners purified
Experiment [1] addresses T1, HA H3 top domain ( (Figure 2 shows HA of …, UniProt P03437)).
T1 construct: source: HEK293T, pTT5 vector, purified via His-tag on Ni-NTA
The experiment in a line: SPR. On the technique in general: In SPR one partner is held on a chip, and binding of the other changes the refractive index at the surface.

The target of experiment [2] is T1, HA H3 top domain. As to the kind of experiment: ELISA. On the technique in general: In an ELISA, binding on a coated surface is turned into a signal by an enzyme label.
Experiment [3] concerns the target T2, wild-type cyanovirin-N (WT CV–N) ( (cyanobacterial lectin), UniProt P81180 1-101).
T2 construct: also called WT CV–N monomer; monomeric CV–N
T2 sequence: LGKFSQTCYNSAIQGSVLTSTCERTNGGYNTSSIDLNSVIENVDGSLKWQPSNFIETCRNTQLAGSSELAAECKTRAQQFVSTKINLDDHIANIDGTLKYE
As to the kind of experiment: SPR.

B1: HC19 Fab, anti-influenza HA (Fab, V domains shown)
VH: QVQLKESGPGLVAPSQSLSITCTVSGFLLISNGVHWVRQPPGKGLEWLGVIWAGGNTNYNSALMSRVSISKDNSKSQVFLKMKSLQTDDTAMYYCARDFYDYDVFYYAMDYWGQGTSVTVSS
VL: QAVVTQESALTTSPGETVTLTCRSSTGAVTTSNYANWVQEKPDHLFTGLIGGTNNRAPGVPARFSGSLIGDKAALTITGAQTEDEAIYFCALWYSNHWVFGGGTKLTVL
notes: also called anti-HA HC19; HC19 anti-influenza Fab; source: HEK293-6E, transient transfection, purified from supernatant (protein A, SEC)
In the experiment with HA H3 top domain [1], B1 yielded a Kd of 64 nM, a koff of 0.0231 s⁻¹ and a kon of 360000 M⁻¹ s⁻¹. Further, the Kd in the experiment with HA H3 top domain [2] is 12.5 nM.

B2: HIV-1 gp140 trimer, Clade A 92 UG 037.8 (domain or fragment)
chain: not shown
Turning to B2, in experiment [3], the Kd amounted to 120 nM.

By Kd is commonly meant the concentration at which binding is half-saturated. What is called koff is the rate constant with which the complex falls apart. A lower koff goes with slow dissociation. A word on the kon: it is the rate constant with which the complex forms.
